Source: PMC7529888 (Nature, 2020)
Each block holds one binder with its values, some of them ahead of it.

How the values were obtained:
[1] = biological target: PARP2 (human (from the printed UniProt …, UniProt Q9UGN5-2 1-570)); experiment: cryo-EM structure
[2] = biological target: PARP2 (UniProt Q9UGN5-2 1-570); experiment: EMSA

binding result [1]: binds
B1: HPF1 (natural protein)
chain: MVGGGGKRRPGGEGPQCEKTTDVKKSKFCEADVSSDLRKEVENHYKLSLPEDFYHFWKFCEELDPEKPSDSLSASLGLQLVGPYDILAGKHKTKKKSTGLNFNLHWRFYYDPPEFQTIIIGDNKTQYHMGYFRDSPDEFPVYVGINEAKKNCIIVPNGDNVFAAVKLFLTKKLREITDKKKINLLKNIDEKLTEAARELGYSLEQRTVKMKQRDKKVVTKTFHGAGLVVPVDKNDVGYRELPETDADLKRICKTIVEAASDEERLKAFAPIQEMMTFVQFANDECDYGMGLELGMDLFCYGSHYFHKVAGQLLPLAYNLLKRNLFAEIIEEHLANRSQENIDQLAA

Binder: TCGCGGCAGCTGGTGCTGCCGCGA (structured_DNA, 5' phosphate) [hairpin DNA 5'P]
binding result [2]: binds
